Laboratory results: US5998154
Several values for one entry are separate records, joined by “and”; a condition that tells them apart may be missing. Equal values may be shown once. Read-outs that look alike come from different tables or passages of the source.

Experiments:
[1] = biological target: rat sst1 receptor (expressed in stably transfected CHO-K1 cells, CHO-R1) (rat) (UniProt P28646); test: PEG precipitation of solubilised radioligand-receptor complex from CHO-R1 cells
[2] = biological target: rat sst1 receptor (expressed in stably transfected CHO-K1 cells, CHO-R1) (rat) (UniProt P28646); test: as above; remark: listed apart in the source
[3] = biological target: rat sst1 receptor (expressed in stably transfected CHO-K1 cells, CHO-R1) (rat) (UniProt P28646); test: as above; remark: listed apart in the source
[4] = biological target: rat sst2A receptor (expressed in stably transfected CHO-K1 cells, CHO-R2 / CHO-R2A) (rat) (UniProt P30680); test: PEG precipitation of solubilised radioligand-receptor complex from CHO-R2 cells
[5] = biological target: sst3 receptor (expressed in stably transfected CHO-K1 cells, CHO-R3); test: PEG precipitation of solubilised radioligand-receptor complex from CHO-R3 cells
[6] = biological target: sst4 receptor (expressed in stably transfected CHO-K1 cells, CHO-R4); test: PEG precipitation of solubilised radioligand-receptor complex from CHO-R4 cells
[7] = biological target: rat sst2A receptor (expressed in stably transfected CHO-K1 cells, CHO-R2 / CHO-R2A) (rat) (UniProt P30680); test: PEG precipitation of solubilised radioligand-receptor complex from CHO-R2 cells; remark: listed apart in the source
[8] = biological target: rat sst1 receptor (expressed in stably transfected CHO-K1 cells, CHO-R1) (rat) (UniProt P28646); test: PEG precipitation of solubilised radioligand-receptor complex from CHO-R1 cells; remark: listed apart in the source
[9] = biological target: rat sst2A receptor (expressed in stably transfected CHO-K1 cells, CHO-R2 / CHO-R2A) (rat) (UniProt P30680); test: PEG precipitation of solubilised radioligand-receptor complex from CHO-R2 cells; remark: listed apart in the source
[10] = biological target: sst4 receptor (expressed in stably transfected CHO-K1 cells, CHO-R4); test: PEG precipitation of solubilised radioligand-receptor complex from CHO-R4 cells; remark: listed apart in the source
[11] = biological target: sst4 receptor (expressed in stably transfected CHO-K1 cells, CHO-R4); test: as above; remark: listed apart in the source
[12] = biological target: rat sst1 receptor (expressed in stably transfected CHO-K1 cells, CHO-R1) (rat) (UniProt P28646); test: PEG precipitation of solubilised radioligand-receptor complex from CHO-R1 cells; remark: listed apart in the source
[13] = biological target: rat sst2A receptor (expressed in stably transfected CHO-K1 cells, CHO-R2 / CHO-R2A) (rat) (UniProt P30680); test: dissociation from the receptor complex immunoprecipitated with R2-88 from GH4C1 cells, no guanine nucleotide
[14] = biological target: rat sst1 receptor (expressed in stably transfected CHO-K1 cells, CHO-R1) (rat) (UniProt P28646); test: dissociation from the receptor complex immunoprecipitated with R1-201 from CHO-R1 cells, no guanine nucleotide

Precipitated Complex (cpm), PEG [1]: 7100 cpm
Precipitated Complex (cpm), PEG [2]: 8350 cpm
Precipitated Complex (cpm), PEG [3]: 15100 cpm
Precipitated Complex (cpm), PEG [4]: 16200 cpm
Precipitated Complex (cpm), PEG [5]: 683 cpm
Precipitated Complex (cpm), PEG [6]: 12500 cpm
Precipitated Complex (cpm), PEG [7]: 8490 cpm
Precipitated Complex (cpm), PEG [8]: 7060 cpm
Precipitated Complex (cpm), PEG [9]: 8840 cpm and 6330 cpm
Precipitated Complex (cpm), PEG [10]: 10000 cpm
Precipitated Complex (cpm), PEG [11]: 4980 cpm and 10000 cpm
Precipitated Complex (cpm), PEG [12]: 706 cpm
percent of specifically bound ligand dissociated [13]: 12%
percent of specifically bound ligand dissociated [14]: 53%
Substance: [125I-Tyr11]SRIF (peptide)
